Data from article PMC4653032.

Experiments:
Conditions in all cases: glycan lost; control: wild-type CD133
[1] = immunofluorescence with ER dye, HEK293T
[2] = anti-CD133 western blot, HEK293T lysates
[3] = FLAG IP, PY828 blot, HEK293T with Src
[4] = surface flow cytometry, HEK293T and HepG2

B1: CD133 (prominin-1): N548Q (protein)
parent chain: MALVLGSLLLLGLCGNSFSGGQPSSTDAPKAWNYELPATNYETQDSHKAGPIGILFELVHIFLYVVQPRDFPEDTLRKFLQKAYESKIDYDKPETVILGLKIVYYEAGIILCCVLGLLFIILMPLVGYFFCMCRCCNKCGGEMHQRQKENGPFLRKCFAISLLVICIIISIGIFYGFVANHQVRTRIKRSRKLADSNFKDLRTLLNETPEQIKYILAQYNTTKDKAFTDLNSINSVLGGGILDRLRPNIIPVLDEIKSMATAIKETKEALENMNSTLKSLHQQSTQLSSSLTSVKTSLRSSLNDPLCLVHPSSETCNSIRLSLSQLNSNPELRQLPPVDAELDNVNNVLRTDLDGLVQQGYQSLNDIPDRVQRQTTTVVAGIKRVLNSIGSDIDNVTQRLPIQDILSAFSVYVNNTESYIHRNLPTLEEYDSYWWLGGLVICSLLTLIVIFYYLGLLCGVCGYDRHATPTTRGCVSNTGGVFLMVGVGLSFLFCWILMIIVVLTFVFGANVEKLICEPYTSKELFRVLDTPYLLNEDWEYYLSGKLFNKSKMKLTFEQVYSDCKKNRGTYGTLHLQNSFNISEHLNINEHTGSISSELESLKVNLNIFLLGAAGRKNLQDFAACGIDRMNYDSYLAQTGKSPAGVNLLSFAYDLEAKANSLPPGNLRNSLKRDAQTIKTIHQQRVLPIEQSLSTLYQSVKILQRTGNGLLERVTRILASLDFAQNFITNNTSSVIIEETKKYGRTIIGYFEHYLQWIEFSISEKVASCKPVATALDTAVDVFLCSYIIDPLNLFWFGIGKATVFLLPALIFAVKLAKYYRRMDSEDVYDDVETIPMKNMENGNNGYHKDHVYGIHNPVMTSPSQH
no change: localisation_or_trafficking [1] | expression_or_secretion [2] | other: Y828 phosphorylation [3] | localisation_or_trafficking [4]

B2: CD133 (prominin-1): N730Q (protein)
parent chain: B1 parent chain
no change: localisation_or_trafficking [1] | expression_or_secretion [2] | localisation_or_trafficking [4]

B3: CD133 (prominin-1): N729Q (protein)
parent chain: B1 parent chain
no change: localisation_or_trafficking [1] | expression_or_secretion [2] | localisation_or_trafficking [4]
